The source of these data is PMC4239642, “trans-Acting Arginine Residues in the AAA+ Chaperone ClpB Allosterically Regulate the Activity through Inter- and Intradomain Communication” (The Journal of Biological Chemistry, 2014).

In experiment [1] the target is cross-linked NBD1-M dimer with Walker B mutation E271Q in the cross-linked interface (Thermus thermophilus) (UniProt Q9RA63). As to the kind of experiment: SEC-MALS; Superdex 200 10/300 GL with multiangle static light scattering (SLS), buffer A (50 mM Tris/HCl pH 7.5, 50 mM KCl, 5 mM MgCl2, 2 mM EDTA); running buffer nucleotide-free or with 2 mM ADP or 2 mM ATP; 40 μl of 100 μM injected, about 2 μM at the detector; self-association induced by nucleotide. Particulars: scale: NBD1-M subunits. (In general: SEC sorts molecules by how far they enter the pores of the column.)

Experiment [2] deals with cross-linked NBD1-M dimer with Walker B mutation E271Q in the free interface (Thermus thermophilus) (UniProt Q9RA63). Described as above. Particulars: scale: NBD1-M subunits.

Broadly, the stoichiometry N is the number of molecules, sites or subunits per partner or assembly. In turn, “cross-linked NBD1-M dimer with Walker B mutation E271Q in the cross-linked interface (from UniProt Q9RA63 141-534; Q9RA63 141-534) (complex)” had a stoichiometry N in experiment [1] of 4.
As to “cross-linked NBD1-M dimer with Walker B mutation E271Q in the free interface (from UniProt Q9RA63 141-534; Q9RA63 141-534) (complex)”, the stoichiometry N in experiment [2] worked out at 4.
